Data taken from PMC5045296.

Assays:
[1] = target: tubulin (alpha/beta heterodimer), polymerised into microtubules or as free tubulin-dimers (porcine) (UniProt P02550); assay: co-sedimentation; KIF19A protein (printed 'Two micromoles') with 0-40 μM taxol-stabilized MTs in PEM buffer, 25°C, 15 min, AMP-PNP; 38,000 xg 10 min; SDS-PAGE band intensities; one site binding model
[2] = target: tubulin (alpha/beta heterodimer), polymerised into microtubules or as free tubulin-dimers (porcine) (UniProt P02550)
[3] = target: tubulin (alpha/beta heterodimer), polymerised into microtubules or as free tubulin-dimers (porcine) (UniProt P02550); remark: listed apart in the source
[4] = target: tubulin (alpha/beta heterodimer), polymerised into microtubules or as free tubulin-dimers (porcine) (UniProt P02550); remark: listed apart in the source
[5] = target: tubulin (alpha/beta heterodimer), polymerised into microtubules or as free tubulin-dimers (porcine) (UniProt P02550); remark: listed apart in the source
[6] = target: tubulin (alpha/beta heterodimer), polymerised into microtubules or as free tubulin-dimers (porcine) (UniProt P02550); remark: listed apart in the source

B1: KIF19A-353 (mouse KIF19A motor domain, monomeric construct) (domain or fragment)
chain: MKDSGDSKDQQLMVALRVRPISVAELEEGATLIAHKMDEQMVVLMDPMEDPDDILRAHRSREKSYLFDVAFDFTATQEMVYQATTKSLIEGVISGYNATVFAYGPTGCGKTYTMLGTDHEPGIYVRTLNDLFRAIEETSNDMEYEVSMSYLEIYNEMIRDLLNPALGYLELREDSKGVIQVAGITEVSTINAKEIMQLLMKGNRQRTQEPTAANQTSSRSHAVLQVAVRQRSRVKNILQEVRQGRLFMIDLAGSERASQTQNRGQRMKEGAHINRSLLALGNCINALSDKGSNKYINYRDSKLTRLLKDSLGGNSRTVMIAHISPASTAFEESRNTLTYAGRAKNIRTRVKQN
Kd [1]: 600 nM | MT-stimulated steady-state ATPase, maximum rate [2]: 1.43 s⁻¹ | steady-state ATPase stimulated by free tubulin-dimers, maximum rate [2]: 0.8 s⁻¹

B2: KIF19A-353 GS2R (G291 and S292 mutated to arginine) (domain or fragment)
chain: MKDSGDSKDQQLMVALRVRPISVAELEEGATLIAHKMDEQMVVLMDPMEDPDDILRAHRSREKSYLFDVAFDFTATQEMVYQATTKSLIEGVISGYNATVFAYGPTGCGKTYTMLGTDHEPGIYVRTLNDLFRAIEETSNDMEYEVSMSYLEIYNEMIRDLLNPALGYLELREDSKGVIQVAGITEVSTINAKEIMQLLMKGNRQRTQEPTAANQTSSRSHAVLQVAVRQRSRVKNILQEVRQGRLFMIDLAGSERASQTQNRGQRMKEGAHINRSLLALGNCINALSDKRRNKYINYRDSKLTRLLKDSLGGNSRTVMIAHISPASTAFEESRNTLTYAGRAKNIRTRVKQN
Kd [1]: 600 nM | Michaelis-Menten constant of the ATPase for MTs and for tubulins, against 353WT (times lower than 353WT) [3]: 4

B3: KIF19A-353 K2A (K290 and K294 replaced with alanine) (domain or fragment)
chain: MKDSGDSKDQQLMVALRVRPISVAELEEGATLIAHKMDEQMVVLMDPMEDPDDILRAHRSREKSYLFDVAFDFTATQEMVYQATTKSLIEGVISGYNATVFAYGPTGCGKTYTMLGTDHEPGIYVRTLNDLFRAIEETSNDMEYEVSMSYLEIYNEMIRDLLNPALGYLELREDSKGVIQVAGITEVSTINAKEIMQLLMKGNRQRTQEPTAANQTSSRSHAVLQVAVRQRSRVKNILQEVRQGRLFMIDLAGSERASQTQNRGQRMKEGAHINRSLLALGNCINALSDAGSNAYINYRDSKLTRLLKDSLGGNSRTVMIAHISPASTAFEESRNTLTYAGRAKNIRTRVKQN
Kd [1]: 3000 nM | EC50 of depolymerization of GMPCPP-stabilized MTs (5 mM ATP) [4]: 678 nM | MT depolymerization speed (TIRF, 125 nM motor) [4]: 2 nm/s

B4: KIF19A-353 PC2A (R56A-H58A-R59A-R61A) (domain or fragment)
chain: MKDSGDSKDQQLMVALRVRPISVAELEEGATLIAHKMDEQMVVLMDPMEDPDDILAAAASAEKSYLFDVAFDFTATQEMVYQATTKSLIEGVISGYNATVFAYGPTGCGKTYTMLGTDHEPGIYVRTLNDLFRAIEETSNDMEYEVSMSYLEIYNEMIRDLLNPALGYLELREDSKGVIQVAGITEVSTINAKEIMQLLMKGNRQRTQEPTAANQTSSRSHAVLQVAVRQRSRVKNILQEVRQGRLFMIDLAGSERASQTQNRGQRMKEGAHINRSLLALGNCINALSDKGSNKYINYRDSKLTRLLKDSLGGNSRTVMIAHISPASTAFEESRNTLTYAGRAKNIRTRVKQN
Kd [1]: 5800 nM | K (M, MT) of the MT-stimulated ATPase, against 353WT (times that of 353WT) [5]: 30

B5: KIF19A-353 N297P (domain or fragment)
chain: MKDSGDSKDQQLMVALRVRPISVAELEEGATLIAHKMDEQMVVLMDPMEDPDDILRAHRSREKSYLFDVAFDFTATQEMVYQATTKSLIEGVISGYNATVFAYGPTGCGKTYTMLGTDHEPGIYVRTLNDLFRAIEETSNDMEYEVSMSYLEIYNEMIRDLLNPALGYLELREDSKGVIQVAGITEVSTINAKEIMQLLMKGNRQRTQEPTAANQTSSRSHAVLQVAVRQRSRVKNILQEVRQGRLFMIDLAGSERASQTQNRGQRMKEGAHINRSLLALGNCINALSDKGSNKYIPYRDSKLTRLLKDSLGGNSRTVMIAHISPASTAFEESRNTLTYAGRAKNIRTRVKQN
tubulin-stimulated ATPase rate, against the wild type (of the wild type) [6]: 0.5

B6: KIF19A-353 L55A (domain or fragment)
chain: MKDSGDSKDQQLMVALRVRPISVAELEEGATLIAHKMDEQMVVLMDPMEDPDDIARAHRSREKSYLFDVAFDFTATQEMVYQATTKSLIEGVISGYNATVFAYGPTGCGKTYTMLGTDHEPGIYVRTLNDLFRAIEETSNDMEYEVSMSYLEIYNEMIRDLLNPALGYLELREDSKGVIQVAGITEVSTINAKEIMQLLMKGNRQRTQEPTAANQTSSRSHAVLQVAVRQRSRVKNILQEVRQGRLFMIDLAGSERASQTQNRGQRMKEGAHINRSLLALGNCINALSDKGSNKYINYRDSKLTRLLKDSLGGNSRTVMIAHISPASTAFEESRNTLTYAGRAKNIRTRVKQN
Kd [1]: 1600 nM
